Results reported in patent US20120094899A1 (Takeda / Millennium, published 2012).
Non-standard residues stand in square brackets, D forms with d. No end group written: not given here. *: point of attachment. Acetyl(2-(piperazin-1-yl)) = O=C(CN1CCNCC1)*; PEG 20 kDa = methoxypolyethylene glycol 20k; PEG 30 kDa = methoxypolyethylene glycol 30k; NMeY = CN[C@@H](Cc1ccc(O)cc1)C(=O)O; NMeR = CN[C@@H](CCCNC(=N)N)C(=O)O; NMeL = CN[C@@H](CC(C)C)C(=O)O; NMeA = CN[C@@H](C)C(=O)O; βAla = NCCC(=O)O

T1: Human FM3 (human, UniProt Q9HB89 1-426)
T1 construct: whole, on cells; Assayed as the membrane fraction of FM3-expressing CHO cells (1.2 mg/mL protein); also called NMUR1; FM3 receptor
T1 sequence (looked up): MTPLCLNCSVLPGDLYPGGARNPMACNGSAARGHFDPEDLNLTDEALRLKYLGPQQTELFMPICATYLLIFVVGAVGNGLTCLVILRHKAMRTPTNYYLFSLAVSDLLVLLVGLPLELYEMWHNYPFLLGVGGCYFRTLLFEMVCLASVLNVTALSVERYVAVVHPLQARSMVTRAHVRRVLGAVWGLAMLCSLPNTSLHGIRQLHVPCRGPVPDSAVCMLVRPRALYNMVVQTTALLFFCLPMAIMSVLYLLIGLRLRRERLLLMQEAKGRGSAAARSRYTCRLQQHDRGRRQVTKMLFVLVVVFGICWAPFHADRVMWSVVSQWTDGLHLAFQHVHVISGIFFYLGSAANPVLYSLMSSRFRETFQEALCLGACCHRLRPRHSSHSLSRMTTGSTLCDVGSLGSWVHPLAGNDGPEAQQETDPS

B1: β-Ala0,NMeTyr1,NMeLeu3,NMeArg5-NMU-8 (Compound 16) (peptide)
peptide: [βAla][NMeY]F[NMeL]F[NMeR]PRN-NH2
modifications: N-terminus assumed
SMILES: CC(C)C[C@@H](C(=O)N[C@@H](Cc1ccccc1)C(=O)N(C)[C@@H](CCCNC(=N)N)C(=O)N1CCC[C@H]1C(=O)N[C@@H](CCCNC(=N)N)C(=O)N[C@@H](CC(N)=O)C(N)=O)N(C)C(=O)[C@H](Cc1ccccc1)NC(=O)[C@H](Cc1ccc(O)cc1)N(C)C(=O)CCN
notes: also called β-Ala0,NMeTry1,NMeLeu3,NMEArg5-NMU-8
B2: β-Ala0,Trp2,NMeAla6-NMU-8 (Compound 17) (peptide)
peptide: [βAla]YWLFR[NMeA]RN-NH2
modifications: N-terminus assumed
SMILES: CC(C)C[C@H](NC(=O)[C@H](Cc1c[nH]c2ccccc12)NC(=O)[C@H](Cc1ccc(O)cc1)NC(=O)CCN)C(=O)N[C@@H](Cc1ccccc1)C(=O)N[C@@H](CCCNC(=N)N)C(=O)N(C)[C@@H](C)C(=O)N[C@@H](CCCNC(=N)N)C(=O)N[C@@H](CC(N)=O)C(N)=O
B3: PEG20k-NpipAc0,Glu2,NMeAla6-NMU-8 (Compound U) (peptide)
peptide: {PEG 20 kDa-Acetyl(2-(piperazin-1-yl))}-YELFR[NMeA]RN-NH2
notes: also called PEG20k-NpipAc-Glu2,NMeAla6-NMU8
B4: NpipAc0,Glu2,NMeAla6-NMU-8 (Compound 21) (peptide)
peptide: {Acetyl(2-(piperazin-1-yl))}-YELFR[NMeA]RN-NH2
SMILES: CC(C)C[C@H](NC(=O)[C@H](CCC(=O)O)NC(=O)[C@H](Cc1ccc(O)cc1)NC(=O)CN1CCNCC1)C(=O)N[C@@H](Cc1ccccc1)C(=O)N[C@@H](CCCNC(=N)N)C(=O)N(C)[C@@H](C)C(=O)N[C@@H](CCCNC(=N)N)C(=O)N[C@@H](CC(N)=O)C(N)=O
notes: also called 2-(piperazin-1-yl)acetyl-[Glu2,NMeAla6]-NMU8
B5: PEG20k-NpipAc0,Glu2,Ala6-NMU-8 (Compound S) (peptide)
peptide: {PEG 20 kDa-Acetyl(2-(piperazin-1-yl))}-YELFRARN-NH2
notes: also called PEG20k-NpipAc-Glu2,Ala6-NMU8
B6: PEG20k-NH-β-Ala0,Glu2,NMeAla6-NMU-8 (Compound R) (peptide)
peptide: {PEG 20 kDa-βAla}-YELFR[NMeA]RN-NH2
B7: NpipAc0,Glu2,Ala6-NMU-8 (Compound 19) (peptide)
peptide: {Acetyl(2-(piperazin-1-yl))}-YELFRARN-NH2
SMILES: CC(C)C[C@H](NC(=O)[C@H](CCC(=O)O)NC(=O)[C@H](Cc1ccc(O)cc1)NC(=O)CN1CCNCC1)C(=O)N[C@@H](Cc1ccccc1)C(=O)N[C@@H](CCCNC(=N)N)C(=O)N[C@@H](C)C(=O)N[C@@H](CCCNC(=N)N)C(=O)N[C@@H](CC(N)=O)C(N)=O
notes: also called 2-(piperazin-1-yl)acetyl-[Glu2,Ala6]-NMU8
B8: β-Ala0,Glu2,NMeAla6-NMU-8 (Compound 18) (peptide)
peptide: [βAla]YELFR[NMeA]RN-NH2
modifications: N-terminus assumed
SMILES: CC(C)C[C@H](NC(=O)[C@H](CCC(=O)O)NC(=O)[C@H](Cc1ccc(O)cc1)NC(=O)CCN)C(=O)N[C@@H](Cc1ccccc1)C(=O)N[C@@H](CCCNC(=N)N)C(=O)N(C)[C@@H](C)C(=O)N[C@@H](CCCNC(=N)N)C(=O)N[C@@H](CC(N)=O)C(N)=O
B9: 2-(piperazin-1-yl)acetyl-Arg3-NMU8 (Compound 10) (peptide)
peptide: {Acetyl(2-(piperazin-1-yl))}-YFRFRPRN-NH2
SMILES: N=C(N)NCCC[C@H](NC(=O)[C@H](Cc1ccccc1)NC(=O)[C@H](Cc1ccc(O)cc1)NC(=O)CN1CCNCC1)C(=O)N[C@@H](Cc1ccccc1)C(=O)N[C@@H](CCCNC(=N)N)C(=O)N1CCC[C@H]1C(=O)N[C@@H](CCCNC(=N)N)C(=O)N[C@@H](CC(N)=O)C(N)=O
notes: also called NpipAc-Arg3-NMU-8
B10: PEG30k-NH-β-Ala0,Pro1-NMU-8 (Compound H) (peptide)
peptide: {PEG 30 kDa-βAla}-PFLFRPRN-NH2
notes: also called PEG-NH-β-Ala0,Pro1-NMU-8
B11: β-Ala0,Arg1-NMU-8 (Compound 7) (peptide)
peptide: [βAla]RFLFRPRN-NH2
modifications: N-terminus assumed
SMILES: CC(C)C[C@H](NC(=O)[C@H](Cc1ccccc1)NC(=O)[C@H](CCCNC(=N)N)NC(=O)CCN)C(=O)N[C@@H](Cc1ccccc1)C(=O)N[C@@H](CCCNC(=N)N)C(=O)N1CCC[C@H]1C(=O)N[C@@H](CCCNC(=N)N)C(=O)N[C@@H](CC(N)=O)C(N)=O
B12: PEG30k-NH-β-Ala0,Val3-NMU-8 (Compound D) (peptide)
peptide: {PEG 30 kDa-βAla}-YFVFRPRN-NH2
notes: also called PEG-NH-β-Ala0,Val3-NMU-8
B13: β-Ala0,Arg3-NMU-8 (Compound 3) (peptide)
peptide: [βAla]YFRFRPRN-NH2
modifications: N-terminus assumed
SMILES: N=C(N)NCCC[C@H](NC(=O)[C@H](Cc1ccccc1)NC(=O)[C@H](Cc1ccc(O)cc1)NC(=O)CCN)C(=O)N[C@@H](Cc1ccccc1)C(=O)N[C@@H](CCCNC(=N)N)C(=O)N1CCC[C@H]1C(=O)N[C@@H](CCCNC(=N)N)C(=O)N[C@@H](CC(N)=O)C(N)=O
B14: PEG30k-NH-β-Ala0,Gln3-NMU-8 (Compound B) (peptide)
peptide: {PEG 30 kDa-βAla}-YFQFRPRN-NH2
notes: also called PEG-NH-β-Ala0,Gln3-NMU-8
B15: PEG30k-NpipAc-Arg3-NMU-8 (Compound J) (peptide)
peptide: {PEG 30 kDa-Acetyl(2-(piperazin-1-yl))}-YFRFRPRN-NH2
B16: PEG30k-NH-β-Ala0,Asp8-NMU-8 (Compound L) (peptide)
peptide: {PEG 30 kDa-βAla}-YFLFRPRD-NH2
B17: β-Ala0,Asp8-NMU-8 (Compound 12) (peptide)
peptide: [βAla]YFLFRPRD-NH2
modifications: N-terminus assumed
SMILES: CC(C)C[C@H](NC(=O)[C@H](Cc1ccccc1)NC(=O)[C@H](Cc1ccc(O)cc1)NC(=O)CCN)C(=O)N[C@@H](Cc1ccccc1)C(=O)N[C@@H](CCCNC(=N)N)C(=O)N1CCC[C@H]1C(=O)N[C@@H](CCCNC(=N)N)C(=O)N[C@@H](CC(=O)O)C(N)=O
B18: Arg3-NMU-8 (Compound 9) (peptide)
peptide: YFRFRPRN-NH2
notes: no linker
B19: PEG30k-NH-β-Ala0,Gln5-NMU-8 (Compound A) (peptide)
peptide: {PEG 30 kDa-βAla}-YFLFQPRN-NH2
notes: also called PEG-NH-β-Ala0,Gln5-NMU-8
B20: PEG30k-NH-β-Ala0,Tyr2-NMU-8 (Compound E) (peptide)
peptide: {PEG 30 kDa-βAla}-YYLFRPRN-NH2
notes: also called PEG-NH-β-Ala0,Tyr2-NMU-8
B21: PEG30k-NH-β-Ala0,Arg1-NMU-8 (Compound G) (peptide)
peptide: {PEG 30 kDa-βAla}-RFLFRPRN-NH2
notes: also called PEG-NH-β-Ala0,Arg1-NMU-8
B22: β-Ala0,Gln5-NMU-8 (Compound 1) (peptide)
peptide: [βAla]YFLFQPRN-NH2
modifications: N-terminus assumed
SMILES: CC(C)C[C@H](NC(=O)[C@H](Cc1ccccc1)NC(=O)[C@H](Cc1ccc(O)cc1)NC(=O)CCN)C(=O)N[C@@H](Cc1ccccc1)C(=O)N[C@@H](CCC(N)=O)C(=O)N1CCC[C@H]1C(=O)N[C@@H](CCCNC(=N)N)C(=O)N[C@@H](CC(N)=O)C(N)=O
B23: β-Ala0,Gln3-NMU-8 (Compound 2) (peptide)
peptide: [βAla]YFQFRPRN-NH2
modifications: N-terminus assumed
SMILES: N=C(N)NCCC[C@H](NC(=O)[C@@H]1CCCN1C(=O)[C@H](CCCNC(=N)N)NC(=O)[C@H](Cc1ccccc1)NC(=O)[C@H](CCC(N)=O)NC(=O)[C@H](Cc1ccccc1)NC(=O)[C@H](Cc1ccc(O)cc1)NC(=O)CCN)C(=O)N[C@@H](CC(N)=O)C(N)=O
B24: PEG30k-NH-β-Ala0,Arg3-NMU-8 (Compound C) (peptide)
peptide: {PEG 30 kDa-βAla}-YFRFRPRN-NH2
notes: also called PEG-NH-β-Ala0,Arg3-NMU-8
B25: PEG20k-NpipAc-Arg3-NMU-8 (Compound I) (peptide)
peptide: {PEG 20 kDa-Acetyl(2-(piperazin-1-yl))}-YFRFRPRN-NH2
B26: PEG20k-NpipAc0,Trp2,Ala6-NMU-8 (Compound T) (peptide)
peptide: {PEG 20 kDa-Acetyl(2-(piperazin-1-yl))}-YWLFRARN-NH2
notes: also called PEG20k-NpipAc-Trp2,Ala6-NMU8
B27: β-Ala0,NMeArg5-NMU-8 (Compound 13) (peptide)
peptide: [βAla]YFLF[NMeR]PRN-NH2
modifications: N-terminus assumed
SMILES: CC(C)C[C@H](NC(=O)[C@H](Cc1ccccc1)NC(=O)[C@H](Cc1ccc(O)cc1)NC(=O)CCN)C(=O)N[C@@H](Cc1ccccc1)C(=O)N(C)[C@@H](CCCNC(=N)N)C(=O)N1CCC[C@H]1C(=O)N[C@@H](CCCNC(=N)N)C(=O)N[C@@H](CC(N)=O)C(N)=O

molecular target: T2, human TGR1 (human, UniProt Q9GZQ4 1-415); assay: displacement of 125I-NMU8 from human TGR1 CHO membrane fraction; IC50 relative to NMU-8;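 also: competitive binding on TGR1-expressing CHO cell membranes, with compounds tested as DMSO dilution series and incubated for 70 min at 25 °C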
T2 construct: whole, on cells; Assayed as the membrane fraction of TGR1-expressing CHO cells (1.1 mg/mL protein); also called NMUR2; TGR1 receptor
T2 sequence (Q9GZQ4 whole entry): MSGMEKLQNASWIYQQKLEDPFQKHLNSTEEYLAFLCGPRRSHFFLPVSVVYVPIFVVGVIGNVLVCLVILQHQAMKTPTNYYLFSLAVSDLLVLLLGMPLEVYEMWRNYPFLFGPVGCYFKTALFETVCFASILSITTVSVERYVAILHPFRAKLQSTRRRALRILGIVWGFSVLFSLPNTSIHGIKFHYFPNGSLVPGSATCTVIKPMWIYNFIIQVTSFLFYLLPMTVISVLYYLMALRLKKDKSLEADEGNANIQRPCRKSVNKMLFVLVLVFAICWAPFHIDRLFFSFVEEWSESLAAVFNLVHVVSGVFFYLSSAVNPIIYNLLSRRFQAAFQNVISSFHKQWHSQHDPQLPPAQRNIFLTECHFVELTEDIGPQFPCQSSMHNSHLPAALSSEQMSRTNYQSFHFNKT
Method: (§1) 15 mL of homogenized buffer (10 mM NaHCO₃ (pH 7.4), 5 mM EDTA, protease inhibitor=0.5 mM PMSF, 10 μg/mL Pepstatin A, 20 μg/mL Leupeptin, and 4 μg/mL E-64) was added to the obtained cell pellets, the cellular membrane was disrupted using a polytron homogenizer (Kinematica GmbH), centrifugation was conducted for 10 minutes at 1,000 g at 4° C., and the supernatant was collected. This process was further repeated twice, and ultracentrifugation was conducted for 60 minutes at 30,000 rpm at 4° C. Thereafter, 8 mL of homogenized buffer was added to the pellets and suspended homogeneously to prepare a membrane fraction. The protein concentration of the FM3-expressing CHO cellular membrane fraction was 1.2 mg/mL, and the protein concentration of the TGR1-expressing CHO cellular membrane fraction was 1.1 mg/mL.
(§2) Specifically, each of the NMU derivatives and PEG conjugates was dissolved in DMSO so as to prepare 2 μL of each dilution series of the NMU derivatives and PEG conjugates. […] The resulting product was thoroughly mixed, and then a reaction was carried out at 25° C. for 70 minutes.

IC50 ratio	Binder
27 ratio to NMU-8 (=1)	B1
1.9 ratio to NMU-8 (=1)	B2
360 ratio to NMU-8 (=1)	B3
5.5 ratio to NMU-8 (=1)	B4
750 ratio to NMU-8 (=1)	B5
540 ratio to NMU-8 (=1)	B6
25 ratio to NMU-8 (=1)	B7
31 ratio to NMU-8 (=1)	B8
0.66 ratio to NMU-8 (=1)	B9
21 ratio to NMU-8 (=1)	B10
3.7 ratio to NMU-8 (=1)	B11
2.2 ratio to NMU-8 (=1)	B12
0.38 ratio to NMU-8 (=1)	B13
7.3 ratio to NMU-8 (=1)	B14
2.6 ratio to NMU-8 (=1)	B15
34 ratio to NMU-8 (=1)	B16
2 ratio to NMU-8 (=1)	B17
1.9 ratio to NMU-8 (=1)	B18
9.6 ratio to NMU-8 (=1)	B19
1.7 ratio to NMU-8 (=1)	B20
8.5 ratio to NMU-8 (=1)	B21
3.4 ratio to NMU-8 (=1)	B22
3.9 ratio to NMU-8 (=1)	B23
2.6 ratio to NMU-8 (=1)	B24
2.1 ratio to NMU-8 (=1)	B25
55 ratio to NMU-8 (=1)	B26

molecular target: T1, Human FM3; assay: displacement of 125I-NMU8 from human FM3 CHO membrane fraction; IC50 relative to NMU-8;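 also: binding reaction run for 70 min at 25 °C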
Method: as §1, §2

IC50 ratio	Binder
92 ratio to NMU-8 (=1)	B2
6500 ratio to NMU-8 (=1)	B4
24000 ratio to NMU-8 (=1)	B7
26000 ratio to NMU-8 (=1)	B8
0.27 ratio to NMU-8 (=1)	B9
9.4 ratio to NMU-8 (=1)	B10
0.42 ratio to NMU-8 (=1)	B11
5.3 ratio to NMU-8 (=1)	B12
0.07 ratio to NMU-8 (=1)	B13
1.8 ratio to NMU-8 (=1)	B14
2.2 ratio to NMU-8 (=1)	B15
150 ratio to NMU-8 (=1)	B16
2.4 ratio to NMU-8 (=1)	B17
0.62 ratio to NMU-8 (=1)	B18
160 ratio to NMU-8 (=1)	B19
8.1 ratio to NMU-8 (=1)	B20
1.5 ratio to NMU-8 (=1)	B21
15 ratio to NMU-8 (=1)	B22
0.31 ratio to NMU-8 (=1)	B23
1.7 ratio to NMU-8 (=1)	B24
1.6 ratio to NMU-8 (=1)	B25
0.46 ratio to NMU-8 (=1)	B27
